Data reported in patent US20150338398.
Read-outs that look alike come from different tables or passages of the source.

Tested on: TAL-PrA (GAL1 promoter TAL)
Conditions: ChIP-qPCR

Row | Substance | binding signal [fold vs ACT1] | further results
1 | AAATTAATCAGCGGTGAC (double strand) [REV7 similar site (ChrIX)] | 0.77 | 
2 | GAL1 promoter TAL target (ChrII 278829-278846) |  | binding signal (not enriched in glucose): 6.14 fold vs ACT1
3 | GGGGTAATTAAAATTTCT (double strand) [IQG1 similar site (ChrXVI)] | 0.76 | 
4 | GGGGTAATTAATCATTTT (double strand) [SCC2 similar site (ChrIV)] | 0.65 | 
5 | GGGGTAATTAATGTAAAT (double strand) [IDP3 similar site (ChrXIV)] | 0.94 | 
6 | TTATACATTAATCAGCGA (double strand) [ENB1 similar site (ChrXV)] |  | binding signal (GAL1 at least 4.6-fold better): 1.34 fold vs ACT1
